Biological target: T1, GST-Cdc23 (S. pombe, UniProt O42709 1-593)
T1 construct: Cdc23/Mcm10 of S. pombe; also called GST-tagged Cdc23; source: E. coli Codon Plus, from pGEX2T, induced with 1 mM IPTG for 16 h at 18°C; ultrafilter-concentrated extract (pull-down); partially purified (far-western)
T1 sequence (looked up): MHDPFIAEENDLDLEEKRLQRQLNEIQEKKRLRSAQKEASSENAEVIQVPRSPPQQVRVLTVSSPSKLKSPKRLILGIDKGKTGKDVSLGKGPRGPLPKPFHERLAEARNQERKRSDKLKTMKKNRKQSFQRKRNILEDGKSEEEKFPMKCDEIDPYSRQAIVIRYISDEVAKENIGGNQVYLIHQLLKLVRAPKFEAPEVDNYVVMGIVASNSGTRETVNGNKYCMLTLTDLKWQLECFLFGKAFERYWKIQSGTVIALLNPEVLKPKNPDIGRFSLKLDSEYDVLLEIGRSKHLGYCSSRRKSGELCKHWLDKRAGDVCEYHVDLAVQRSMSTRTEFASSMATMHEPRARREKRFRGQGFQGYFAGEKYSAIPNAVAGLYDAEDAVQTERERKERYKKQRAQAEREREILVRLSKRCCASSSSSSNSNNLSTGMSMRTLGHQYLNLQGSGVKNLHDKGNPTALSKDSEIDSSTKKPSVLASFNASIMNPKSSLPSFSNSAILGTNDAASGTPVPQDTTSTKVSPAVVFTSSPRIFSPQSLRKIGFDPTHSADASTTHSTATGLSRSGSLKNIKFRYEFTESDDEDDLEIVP
Assay: far-Western, overlay or dot blot; partially purified GST and GST-Cdc23 resolved by SDS-PAGE, blotted and progressively renatured; incubated with purified extracts from E. coli expressing MBP, MBP-Polα^+ or MBP-Polα^Swi7-1; probed with anti-Polα
Conditions: both partners purified

fold weaker interaction than with Polα^+: ~3 fold
B1: MBP-Polα^Swi7-1 (natural protein, S. pombe, UniProt P28040 1-1405, looked up)
chain: MRKRNAGIKPSQRFAELRALRQAGKTRASTYESKENEELYDNVSEEEYRKIVRQRLDEDDFVVDDNGAGYVDNGYDEWDQSHYSDEDDENEKGSSGRKRKKSKNVLAEPNQQIGAFFKANAIQPASRIANRKNNEKEDEFMAEILGSIDQDIPERLSTKKGNRSHTTSNAKRRSQKAASSISTTNVVSSDPKKYIPETVPSTPQPASSLPIPSSPPAALETEENVDSQPMELDEPELPVGSDAPIIDVEESIAMKPLMSHDQVDDTASLSKATISQQPLSPMTPLSSELDVSAFSEINSKIKNVDVPASSYSSPISKVSPSDVTEEDGSLFFFWMDYTEMYGSLCLFGKVYDKATKQYVSCFLKVDGIMRSLYFLPRPSSSSVSEDSIAAQTKDVYDEVANLLSKRGVKEWKSRVSKYKYAFELEDVPRTADYLEVIYSYSYPALPTDLTGSSFSHVFGTNTALFEQFVLSRRVMGPCWLKIQQPNFDAVKNASWCRVEIGCSSPQNISVSFEKNEITSKTPPMTVMSLAFRTLINKEQNKQEVVMISARIFENVDIEKGLPANDMPSYSFSLIRPLKQIFPNGFEKLARQHKSSIFCERSEVSLLNNFLNKVRTYDPDVYFGHDFEMCYSVLLSRLKERKIHNWSSIGRLRRSEWPRSFNRSSQQFVEKQIIAGRLMCDLSNDFGRSMIKAQSWSLSEIVLKELDIKRQDINQEKALQSWTDTAHGLLDYLVHCEIDTFFIAAVAFKIQMLQLSKNLTNIAGNSWARTLTGTRAERNEYILLHEFKKNGYIVPDKQQSIRRHAEAFGAEDGLQEESLGKKKDKYKGGLVFEPQKGLYETCILVMDFNSLYPSIIQEYNICFTTVDRSPSNSDSDDQIPDTPSASANQGIFPRLIANLVERRRQIKGLLKDNSATPTQRLQWDIQQQALKLTANSMYGCLGYTKSRFYARPLAVLITYKGREALMNTKELADQMGLQVIYGDTDSVMLNTNVTDKNHALRIGNEFKEKVNERYSKLEIDIDNVYQRMLLHAKKKYAALQLDSQGKPNLDVKGLDMKRREFCTLAKEASKFCLDQILSGELTETVIENIHSYLMDFSEKMRNGKFPANKFIIFNRLEKNPEDYPNGKTMPFVQVALKKKARGENVRVGDVIPFIIAGSDADGHPADRAYSPQEIMNTNSTLVIDYNYYLSHQILPPIERVIAPIEGTNRARLAECLGLDARKYYSHETSESSAFQRYESTLTDDQCFINVSPLLLKCPSCNATSFSLRSVKSLKETLYANTVECDCGYEYSDFTIILQFSSQLRDFINLYYEGILVCDDSSCGNRTRQMSVYGKRCCNKSCRGSVHFEYNDEQLYNQIKFLLKAVQTTTGATRNGIIRCNAINKNISRIMNKNAREFVDMGLIFSS
notes: catalytic subunit of DNA polymerase α (Swi7) of S. pombe with the swi7-1 mutation G1116E; also called MBP-tagged swi7-1/polα; Polα^7-1; source: E. coli, from pMALp2, induced with 1 mM IPTG for 8 h at 25°C; purified on amylose resin (far-western)
